Laboratory results: the supplement of paper PMC10724198
± gives the standard deviation of the averaged measurements.

Columns and labels:
Saccharomyces cerevisiae [1] = assay: protein stability index of tFT-peptide fusion (C-terminal peptide) (PSI (0-1 scale)); higher = more stable (slower turnover)
Experimental: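 MPS profiling in S. cerevisiae of the tFT-X12 degron library: putative degron peptides plus stable controls, 12 aa, fused to the C-terminus of a sfGFP-mCherry timer. Cells are FACS-sorted into 8 mCherry/sfGFP bins and deep-sequenced. PSI runs from 0 (unstable) to 1 (stable). Backgrounds are wild type, das1Δ and doa10Δ at 30 °C, and wild type, das1Δ, cdc34-1 and cdc53-1 at 37 °C; 2-3 technical replicates each.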

Saccharomyces cerevisiae [2] = assay: as above; details: genetic background: wild type; temperature: 30 C
[3] = genetic background: cdc34-1, temperature: 37 C
[4] = genetic background: cdc53-1, temperature: 37 C
[5] = genetic background: das1 deletion, temperature: 30 C
[6] = genetic background: das1 deletion, temperature: 37 C
[7] = genetic background: doa10 deletion, temperature: 30 C
[8] = genetic background: wild type, temperature: 30 C
[9] = genetic background: wild type, temperature: 37 C
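Further: PSI is a weighted mean of sequencing reads over stability bins, variants kept only with over 10 reads, mCherry proximal and sfGFP distal, peptide attached via GGGS linker.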

Sequence	protein stability index (Saccharomyces cerevisiae [1]; [3])	protein stability index (Saccharomyces cerevisiae [1]; [4])	protein stability index (Saccharomyces cerevisiae [1]; [5])	protein stability index (Saccharomyces cerevisiae [1]; [6])	protein stability index (Saccharomyces cerevisiae [1]; [7])	protein stability index (Saccharomyces cerevisiae [1]; [8])	protein stability index (Saccharomyces cerevisiae [1]; [9])	protein stability index (Saccharomyces cerevisiae [2])
WCGSWGVWMRLG	0.296 ± 0.08	0.456 ± 0.015	0.534 ± 0.03	0.646 ± 0.02	0.0974 ± 0.008	0.0842 ± 0.0092	0.112 ± 0.029	0.122 ± 0.031
WEPILLELELCV	0.498 ± 0.035	0.497 ± 0.026	0.395 ± 0.03	0.487 ± 0.023	0.327 ± 0.021	0.388 ± 0.013	0.538 ± 0.068	0.4357 ± 0.0036
WFLLILFSAFAV	0.433 ± 0.021	0.463 ± 0.036	0.352 ± 0.022	0.501 ± 0.0097	0.314 ± 0.0041	0.3465 ± 0.003	0.471 ± 0.0049	0.436 ± 0.0045
WFSVIMLCYILP	0.204 ± 0.023	0.22 ± 0.028	0.23 ± 0.042	0.3397 ± 0.0018	0.233 ± 0.027	0.198 ± 0.014	0.248 ± 0.036	0.253 ± 0.004
WFVCSGVYGSVM	0.676 ± 0.0086	0.749 ± 0.02	0.682 ± 0.094	0.758 ± 0.035	0.6528 ± 0.0019	0.638 ± 0.026	0.721 ± 0.0092	0.692 ± 0.013
WFVFVFCSPRSS	0.547 ± 0.048	0.618 ± 0.0098	0.4 ± 0.03	0.65 ± 0.027	0.394 ± 0.012	0.406 ± 0.017	0.568 ± 0.0097	0.5 ± 0.029
WGFSVRFVLSVF	0.0576 ± 0.004	0.145 ± 0.03	0.124 ± 0.029	0.2407 ± 0.0016	0.05 ± 0.014	0.0463 ± 0.02	0.115 ± 0.024	0.12 ± 0.017
WGVVMVCVVFGL	0.116 ± 0.019	0.247 ± 0.016	0.186 ± 0.028	0.312 ± 0.0044	0.159 ± 0.011	0.183 ± 0.019	0.252 ± 0.027	0.3249 ± 0.0027
WHFMVFFCFCVD	0.295 ± 0.04	0.399 ± 0.061	0.317 ± 0.036	0.406 ± 0.0098	0.28 ± 0.0047	0.277 ± 0.023	0.355 ± 0.028	0.381 ± 0.024
WILPASFCVVFL	0.502 ± 0.012	0.5334 ± 0.0024	0.385 ± 0.021	0.5556 ± 0.005	0.425 ± 0.019	0.397 ± 0.016	0.528 ± 0.032	0.427 ± 0.027
WLALSFFSFFFC	0.654 ± 0.014	0.7221 ± 0.00075	0.588 ± 0.025	0.6825 ± 0.0042	0.577 ± 0.047	0.57 ± 0.026	0.66 ± 0.02	0.588 ± 0.19
WLFRASSFNWVI	0.537 ± 0.017	0.7359 ± 0.0063	0.689 ± 0.04	0.802 ± 0.025	0.0843 ± 0.016	0.105 ± 0.026	0.188 ± 0.019	0.105 ± 0.036
WLFTSVTVFTFL	0.21366 ± 0.00013	0.299 ± 0.02	0.221 ± 0.023	0.421 ± 0.021	0.181 ± 0.0045	0.196 ± 0.013	0.347 ± 0.016	0.296 ± 0.045
WLSISNLVIACR	0.0277 ± 0.009	0.0619 ± 0.027	0.135 ± 0.039	0.156 ± 0.013	0.0862 ± 0.019	0.115 ± 0.025	0.127 ± 0.017	0.217 ± 0.013
WNSQGVFILAKC	0.54 ± 0.035	0.588 ± 0.032	0.375 ± 0.026	0.5687 ± 0.0026	0.334 ± 0.021	0.372 ± 0.021	0.561 ± 0.00046	0.4783 ± 0.0023
WRAFVFYHHFLD	0.665 ± 0.042	0.718 ± 0.028	0.655 ± 0.039	0.699 ± 0.014	0.329 ± 0.029	0.363 ± 0.029	0.5863 ± 0.0019	0.441 ± 0.015
WVFVETVFLVCG	0.147 ± 0.046	0.226 ± 0.04	0.176 ± 0.038	0.3159 ± 0.0011	0.142 ± 0.012	0.162 ± 0.03	0.2848 ± 0.0003	0.25 ± 0.02

Sequence	protein stability index (Saccharomyces cerevisiae [1]; [3])	protein stability index (Saccharomyces cerevisiae [1]; [4])	protein stability index (Saccharomyces cerevisiae [1]; [5])	protein stability index (Saccharomyces cerevisiae [1]; [6])	protein stability index (Saccharomyces cerevisiae [1]; [7])	protein stability index (Saccharomyces cerevisiae [1]; [8])	protein stability index (Saccharomyces cerevisiae [1]; [9])	protein stability index (Saccharomyces cerevisiae [2])
WVGVVLLSVVGG	0.161 ± 0.016	0.249 ± 0.008	0.2 ± 0.032	0.344 ± 0.0057	0.164 ± 0.008	0.183 ± 0.025	0.32339 ± 0.00026	0.279 ± 0.032
WVWCVCVVVWCG	0.111 ± 0.0046	0.191 ± 0.051	0.153 ± 0.026	0.256 ± 0.013	0.135 ± 0.0037	0.14 ± 0.02	0.195 ± 0.026	0.25425 ± 0.00016
WVWFGCVLGYRV	0.571 ± 0.022	0.561 ± 0.025	0.426 ± 0.026	0.566 ± 0.021	0.442 ± 0.039	0.413 ± 0.027	0.531 ± 0.019	0.484 ± 0.022
WWVAGLGSSGGG	0.738 ± 0.016	0.77959 ± 0.00011	0.663 ± 0.026	0.788 ± 0.0094	0.686 ± 0.031	0.677 ± 0.0094	0.765 ± 0.026	0.7348 ± 0.0046
WWVVVRGGWCLC	0.336 ± 0.043	0.416 ± 0.014	0.286 ± 0.032	0.495 ± 0.009	0.1219 ± 0.0001	0.16 ± 0.0021	0.205 ± 0.0045	0.204 ± 0.011
YFVLVRLICFLL	0.347 ± 0.0092	0.438 ± 0.0066	0.289 ± 0.035	0.472 ± 0.01	0.194 ± 0.011	0.216 ± 0.039	0.373 ± 0.013	0.244 ± 0.085
YNTVALRITLIT	0.444 ± 0.017	0.538 ± 0.013	0.329 ± 0.05	0.5018 ± 0.0042	0.209 ± 0.00078	0.228 ± 0.017	0.364 ± 0.0086	0.348 ± 0.03
YPLISVSLPCPS	0.533 ± 0.018	0.6067 ± 0.0052	0.396 ± 0.042	0.585 ± 0.015	0.349 ± 0.005	0.404 ± 0.023	0.544 ± 0.016	0.489 ± 0.012
YPRLVGGCWFRL	0.318 ± 0.03	0.258 ± 0.037	0.371 ± 0.016	0.547 ± 0.032	0.644 ± 0.043	0.319 ± 0.041	0.603 ± 0.031	0.403 ± 0.047
YSCFFFLFSFFF	0.498 ± 0.023	0.56 ± 0.016	0.429 ± 0.027	0.5552 ± 0.0024	0.423 ± 0.022	0.406 ± 0.0031	0.50243 ± 1.8e-05	0.4853 ± 0.0041
YSVFCPLFFIIY	0.3507 ± 0.0014	0.323 ± 0.006	0.298 ± 0.04	0.458 ± 0.013	0.351 ± 0.014	0.283 ± 0.02	0.433 ± 0.0062	0.379 ± 0.014
YTPPISRLLIFT	0.528 ± 0.031	0.532 ± 0.0094	0.39 ± 0.035	0.564 ± 0.016	0.353 ± 0.019	0.364 ± 0.052	0.494 ± 0.022	0.497 ± 0.097
YVFSPWSCWASV	0.366 ± 0.019	0.396 ± 0.0044	0.416 ± 0.0081	0.361 ± 0.0059	0.4213 ± 0.00065	0.4048 ± 0.0027	0.351 ± 0.015	0.423 ± 0.015
YVLWFVCGVGFV	0.352 ± 0.015	0.462 ± 0.031	0.29 ± 0.045	0.4768 ± 0.0011	0.262 ± 0.024	0.298 ± 0.02	0.453 ± 0.028	0.392 ± 0.041
YVWPKRRGLRVA	0.611 ± 0.036	0.674 ± 0.023	0.467 ± 0.03	0.679 ± 0.009	0.197 ± 0.019	0.261 ± 0.038	0.49 ± 0.025	0.433 ± 0.013
YYLVKCVYLRTT	0.413 ± 0.013	0.4509 ± 0.0038	0.371 ± 0.029	0.504 ± 0.0098	0.155 ± 0.02	0.175 ± 0.0092	0.3201 ± 0.00022	0.254 ± 0.032
